Consider 4 molecules from publication PMC4703070, “cryo-EM structures of the E. coli replicative DNA polymerase reveal its dynamic interactions with the DNA sliding clamp, exonuclease and τ” (eLife, 2015).

Series [1] deals with PolIIIα (clamp-binding motif QADMF to QLDLF);DNA sliding clamp β;exonuclease ε (clamp-binding motif QTSMAF to … (Escherichia coli;Escherichia …, UniProt P10443;P0A988;P03007;P06710 1-1160;1-366;1-243;500-643, A921L;M923L||T183L;M185L;A186P;F187L|)). The series can be described thus: cryo-EM; 3 mM Mg acetate; 8.0 Å DNA-bound map (7.3 Å for class without visible tail/τ500); EMSA: 20 mM Tris pH 7.5, 4% glycerol, 5 mM DTT, 40 μg/ml BSA, 40 mM K glutamate, 10 min room temperature, native 6% gel; cryo-EM: 25 mM Hepes pH 7.5, 50 mM K glutamate, 3 mM Mg acetate, 2 mM DTT, ~4 μM complex + 20 μM DNA, room temperature, then Tween 20. As to conditions: protein: recombinant;recombinant;recombinant;recombinant; tags: ;;;His-tag removed (HRV 3C); copies: 1;2;1;1; 25 bp duplex, 5' overhang 4 nt on template strand. Background: Mobility shift assays separate free from complexed probe on a gel.

The target in series [2] is T1, Pol IV (Escherichia coli, UniProt Q47155 1-351).
T1 sequence: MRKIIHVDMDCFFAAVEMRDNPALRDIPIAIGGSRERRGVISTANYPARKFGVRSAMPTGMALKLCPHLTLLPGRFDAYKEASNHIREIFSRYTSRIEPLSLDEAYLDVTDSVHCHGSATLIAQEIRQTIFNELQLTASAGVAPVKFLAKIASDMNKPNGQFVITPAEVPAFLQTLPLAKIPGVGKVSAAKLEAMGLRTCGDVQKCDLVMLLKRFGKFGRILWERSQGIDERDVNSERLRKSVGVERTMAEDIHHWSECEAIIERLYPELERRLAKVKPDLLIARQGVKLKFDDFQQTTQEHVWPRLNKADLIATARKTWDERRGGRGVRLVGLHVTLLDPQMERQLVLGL
The series can be described thus: EMSA; 2.5 μM protein, 5 nM DNA; EMSA: 20 mM Tris pH 7.5, 4% glycerol, 5 mM DTT, 40 μg/ml BSA, 40 mM K glutamate, 10 min room temperature, native 6% gel; cryo-EM: 25 mM Hepes pH 7.5, 50 mM K glutamate, 3 mM Mg acetate, 2 mM DTT, ~4 μM complex + 20 μM DNA, room temperature, then Tween 20. As to conditions: protein: recombinant; label: 6-FAM at 5' end of primer strand; 25 bp duplex, 5' overhang 4 nt on template strand.

Series [3] addresses Pol I (Klenow fragment) (Escherichia coli, UniProt P00582 324-928). Described as above. To be noted: protein: recombinant; label: 6-FAM at 5' end of primer strand; 25 bp duplex, 5' overhang 4 nt on template strand.
The target of series [4] is T2, E. coli DNA polymerase III α with improved clamp binding motif (PolIIIα^QLDLF) (E. coli, UniProt P10443 1-1160, 920-924 QADMF to QLDLF).
T2 construct: DNA polymerase III subunit α (PolIIIα), E. coli; It says that His-tags were removed with 3C protease but not which of the proteins carried one; PDB 2HNH lacks the C-terminal tail; source: E. coli (DE3) BL21, purified (as described in Toste Rêgo et al., 2013)
Kind of series: cryo-EM structure; four-protein complex assembled at 15 μM, gel filtration in 25 mM Hepes pH 7.5, 50 mM potassium glutamate, 3 mM magnesium acetate, 2 mM DTT; peak fraction (~4 μM) with 20 μM 25 bp DNA substrate; DNA-free (8.3 Å), DNA-bound (8.0 Å) and DNA-bound without tail (7.3 Å) classes from a single data set; crystal and NMR structures fitted as rigid bodies. To be noted: both partners purified. A general note: SEC sorts molecules by how far they enter the pores of the column.

The target in series [5] is T3, E. coli DNA sliding clamp β (E. coli, UniProt P0A988 1-366).
T3 construct: DNA polymerase III β subunit (DNA sliding clamp), E. coli; dimeric; It says that His-tags were removed with 3C protease but not which of the proteins carried one; also called β subunit; source: E. coli (DE3) BL21, purified (as described in Toste Rêgo et al., 2013)
Described as above. To be noted: both partners purified.

B1: 25 bp primer-template with 4 nt overhang (cryo-EM) (dsDNA)
DNA 1: TCAGGAGTCCTTCGTCCTAGTACTACTCC
DNA 2: GGAGTAGTACTAGGACGAAGGACTC
With B1, the binding result in series [1] is “binds”.

B2: 25 bp primer-template with 4 nt overhang (EMSA) (dsDNA)
DNA 1: TCAGGAGTCCTTCGTCCTAGTACTACTCC
DNA 2: GGAGTAGTACTAGGACGAAGGACTC
modifications: phosphorothioate at 3' terminal bond (primer; strand implied)
Turning to B2, the binding result in series [2] and in series [3] was “binds” throughout.

B3: E. coli proofreading exonuclease ε with improved clamp binding motif (exonuclease^QLSLPL) (enzyme, UniProt P03007 1-243, looked up)
chain: MSTAITRQIVLDTETTGMNQIGAHYEGHKIIEIGAVEVVNRRLTGNNFHVYLKPDRLVDPEAFGVHGIADEFLLDKPTFAEVADEFMDYIRGAELVIHNAAFDIGFMDYEFSLLKRDIPKTNTFCKVTDSLAVARKMFPGKRNSLDALCARYEIDNSKRTLHGALLDAQILAEVYLAMTGGQLSLPLAMEGETQQQQGEATIQRIVRQASKLRVVFATDEEIAAHEARLDLVQKKGGSCLWRA
notes: DNA polymerase III subunit ε (proofreading exonuclease), E. coli; residues 190-207 are a missing loop; source: E. coli (DE3) BL21, purified (as described in Toste Rêgo et al., 2013)
Regarding B3, the binding result in series [4] and in series [5] was “binds” each time.

B4: τ500 (the polymerase-binding domain of τ: residues 500–643) (domain or fragment, E. coli, UniProt P06710 500-643, looked up)
chain: ALEHEKTPELAAKLAAEAIERDPWAAQVSQLSLPKLVEQVALNAWKEESDNAVCLHLRSSQRHLNNRGAQQKLAEALSMLKGSTVELTIVEDDNPAVRTPLEWRQAIYEEKLAQARESIIADNNIQTLRRFFDAELDEESIRPI
notes: PDB 2AYA (NMR) holds residues 500-621 only; His-tags were removed with human rhinovirus 3C protease; also called τc; C-terminal domain of the clamp loader subunit τ; source: E. coli (DE3) BL21, purified (Histrap HP, Resource S, Superdex 75)
Turning to B4, the binding result in series [4] was “binds”.
